The supplement of paper PMC10065799, “High-throughput profiling of sequence recognition by tyrosine kinases and SH2 domains using bacterial peptide display” (eLife, 2023)

Key:
SHP2-C SH2 = assay: SH2 binding enrichment of the phosphorylated peptide, bacterial display (enrichment ratio); higher = better substrate or ligand; peptides without Tyr show the background
c-Src SH2 = assay: as above
Grb2 SH2 = Grb2 SH2 (UniProt P62993); assay: as above
AncSZ = assay: phosphorylation enrichment, bacterial display (enrichment ratio); higher = better substrate or ligand; peptides without Tyr show the background
Hck = Hck (UniProt P08631); assay: as above
Sequence of Hck (P08631 whole entry, looked up): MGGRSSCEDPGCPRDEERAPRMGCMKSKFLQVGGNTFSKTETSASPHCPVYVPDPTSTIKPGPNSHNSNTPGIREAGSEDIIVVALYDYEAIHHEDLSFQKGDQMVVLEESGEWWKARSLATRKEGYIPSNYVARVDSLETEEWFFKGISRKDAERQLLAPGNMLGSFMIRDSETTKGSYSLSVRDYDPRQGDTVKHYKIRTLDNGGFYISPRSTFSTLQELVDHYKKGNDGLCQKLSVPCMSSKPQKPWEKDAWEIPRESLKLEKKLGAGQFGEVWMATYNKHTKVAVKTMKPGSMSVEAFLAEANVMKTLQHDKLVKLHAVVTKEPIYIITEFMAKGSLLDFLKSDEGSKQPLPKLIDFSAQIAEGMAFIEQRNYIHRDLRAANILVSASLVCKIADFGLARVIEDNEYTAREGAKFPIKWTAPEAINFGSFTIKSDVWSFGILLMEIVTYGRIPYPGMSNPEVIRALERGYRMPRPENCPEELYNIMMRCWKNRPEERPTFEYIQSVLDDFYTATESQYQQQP

EPHB1 = EPHB1 (UniProt P54762); assay: as above
Sequence of EPHB1 (P54762 whole entry, looked up): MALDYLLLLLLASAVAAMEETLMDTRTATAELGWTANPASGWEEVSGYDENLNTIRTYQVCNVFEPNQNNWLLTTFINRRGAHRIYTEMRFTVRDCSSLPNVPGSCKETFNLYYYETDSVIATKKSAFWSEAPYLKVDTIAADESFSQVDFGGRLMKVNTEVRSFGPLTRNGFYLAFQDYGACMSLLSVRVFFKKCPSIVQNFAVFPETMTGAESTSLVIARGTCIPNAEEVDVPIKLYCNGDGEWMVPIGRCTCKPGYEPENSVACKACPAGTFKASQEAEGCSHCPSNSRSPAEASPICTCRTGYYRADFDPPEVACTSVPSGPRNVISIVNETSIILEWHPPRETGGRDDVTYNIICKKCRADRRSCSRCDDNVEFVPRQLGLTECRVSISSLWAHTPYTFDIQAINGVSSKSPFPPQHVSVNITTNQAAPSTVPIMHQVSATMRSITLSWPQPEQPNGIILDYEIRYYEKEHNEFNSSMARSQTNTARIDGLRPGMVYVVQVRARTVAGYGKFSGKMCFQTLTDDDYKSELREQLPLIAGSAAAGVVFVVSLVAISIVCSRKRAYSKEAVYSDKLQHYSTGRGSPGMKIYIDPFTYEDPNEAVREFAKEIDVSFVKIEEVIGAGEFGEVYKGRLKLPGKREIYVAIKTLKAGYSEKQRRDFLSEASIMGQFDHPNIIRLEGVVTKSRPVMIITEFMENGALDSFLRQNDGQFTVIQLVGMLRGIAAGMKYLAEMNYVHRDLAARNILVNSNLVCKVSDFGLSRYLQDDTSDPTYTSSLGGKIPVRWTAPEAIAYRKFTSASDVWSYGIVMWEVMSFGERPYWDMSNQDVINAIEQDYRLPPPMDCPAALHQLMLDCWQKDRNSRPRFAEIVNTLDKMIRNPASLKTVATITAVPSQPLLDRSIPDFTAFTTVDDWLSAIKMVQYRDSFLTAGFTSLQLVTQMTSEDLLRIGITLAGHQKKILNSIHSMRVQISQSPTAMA

FGFR1 = FGFR1 (UniProt P11362); assay: as above
Fyn = Fyn (UniProt P06241); assay: as above
Sequence of Fyn (P06241 whole entry, looked up): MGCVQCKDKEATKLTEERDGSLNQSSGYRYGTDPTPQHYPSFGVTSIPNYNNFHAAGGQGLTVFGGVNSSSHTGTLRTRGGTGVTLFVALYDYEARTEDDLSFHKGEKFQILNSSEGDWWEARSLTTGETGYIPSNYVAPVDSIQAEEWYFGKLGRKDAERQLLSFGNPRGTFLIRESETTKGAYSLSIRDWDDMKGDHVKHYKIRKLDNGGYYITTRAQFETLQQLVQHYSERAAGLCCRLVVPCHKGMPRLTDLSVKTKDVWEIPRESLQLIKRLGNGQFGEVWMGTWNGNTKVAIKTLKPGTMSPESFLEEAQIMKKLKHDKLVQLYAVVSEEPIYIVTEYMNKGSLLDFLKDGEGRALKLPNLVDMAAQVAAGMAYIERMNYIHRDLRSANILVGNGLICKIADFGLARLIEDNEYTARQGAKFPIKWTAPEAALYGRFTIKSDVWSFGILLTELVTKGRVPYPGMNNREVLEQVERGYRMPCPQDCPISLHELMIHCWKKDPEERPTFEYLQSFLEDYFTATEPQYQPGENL

Fer (mouse) = assay: as above
Fes = Fes (UniProt P07332); assay: as above
Sequence of Fes (P07332 whole entry, looked up): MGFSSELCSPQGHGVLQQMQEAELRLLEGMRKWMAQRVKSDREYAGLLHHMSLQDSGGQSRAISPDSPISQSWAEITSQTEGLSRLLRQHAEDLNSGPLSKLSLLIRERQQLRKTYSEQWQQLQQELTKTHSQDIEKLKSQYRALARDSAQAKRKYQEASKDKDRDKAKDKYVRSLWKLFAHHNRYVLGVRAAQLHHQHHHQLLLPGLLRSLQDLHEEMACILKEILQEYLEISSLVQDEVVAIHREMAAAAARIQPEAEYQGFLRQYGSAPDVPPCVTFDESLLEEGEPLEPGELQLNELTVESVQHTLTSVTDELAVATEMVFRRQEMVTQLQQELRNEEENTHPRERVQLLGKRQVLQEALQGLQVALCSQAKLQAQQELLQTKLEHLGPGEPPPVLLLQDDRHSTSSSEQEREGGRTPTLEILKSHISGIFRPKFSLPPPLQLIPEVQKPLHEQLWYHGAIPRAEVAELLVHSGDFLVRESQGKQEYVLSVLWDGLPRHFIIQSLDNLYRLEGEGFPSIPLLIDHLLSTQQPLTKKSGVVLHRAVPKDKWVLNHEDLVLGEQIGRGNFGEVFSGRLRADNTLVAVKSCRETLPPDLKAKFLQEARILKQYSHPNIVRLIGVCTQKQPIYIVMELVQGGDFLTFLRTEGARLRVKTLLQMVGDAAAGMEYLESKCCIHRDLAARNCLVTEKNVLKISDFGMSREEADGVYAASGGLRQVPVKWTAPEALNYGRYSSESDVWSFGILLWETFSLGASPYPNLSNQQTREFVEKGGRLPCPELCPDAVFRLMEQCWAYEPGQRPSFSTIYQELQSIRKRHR

c-Src = assay: as above
EPHB2 = EPHB2 (UniProt P29323); assay: as above
Jak2 = Jak2 (UniProt O60674); assay: as above
Sequence of Jak2 (O60674 whole entry, looked up): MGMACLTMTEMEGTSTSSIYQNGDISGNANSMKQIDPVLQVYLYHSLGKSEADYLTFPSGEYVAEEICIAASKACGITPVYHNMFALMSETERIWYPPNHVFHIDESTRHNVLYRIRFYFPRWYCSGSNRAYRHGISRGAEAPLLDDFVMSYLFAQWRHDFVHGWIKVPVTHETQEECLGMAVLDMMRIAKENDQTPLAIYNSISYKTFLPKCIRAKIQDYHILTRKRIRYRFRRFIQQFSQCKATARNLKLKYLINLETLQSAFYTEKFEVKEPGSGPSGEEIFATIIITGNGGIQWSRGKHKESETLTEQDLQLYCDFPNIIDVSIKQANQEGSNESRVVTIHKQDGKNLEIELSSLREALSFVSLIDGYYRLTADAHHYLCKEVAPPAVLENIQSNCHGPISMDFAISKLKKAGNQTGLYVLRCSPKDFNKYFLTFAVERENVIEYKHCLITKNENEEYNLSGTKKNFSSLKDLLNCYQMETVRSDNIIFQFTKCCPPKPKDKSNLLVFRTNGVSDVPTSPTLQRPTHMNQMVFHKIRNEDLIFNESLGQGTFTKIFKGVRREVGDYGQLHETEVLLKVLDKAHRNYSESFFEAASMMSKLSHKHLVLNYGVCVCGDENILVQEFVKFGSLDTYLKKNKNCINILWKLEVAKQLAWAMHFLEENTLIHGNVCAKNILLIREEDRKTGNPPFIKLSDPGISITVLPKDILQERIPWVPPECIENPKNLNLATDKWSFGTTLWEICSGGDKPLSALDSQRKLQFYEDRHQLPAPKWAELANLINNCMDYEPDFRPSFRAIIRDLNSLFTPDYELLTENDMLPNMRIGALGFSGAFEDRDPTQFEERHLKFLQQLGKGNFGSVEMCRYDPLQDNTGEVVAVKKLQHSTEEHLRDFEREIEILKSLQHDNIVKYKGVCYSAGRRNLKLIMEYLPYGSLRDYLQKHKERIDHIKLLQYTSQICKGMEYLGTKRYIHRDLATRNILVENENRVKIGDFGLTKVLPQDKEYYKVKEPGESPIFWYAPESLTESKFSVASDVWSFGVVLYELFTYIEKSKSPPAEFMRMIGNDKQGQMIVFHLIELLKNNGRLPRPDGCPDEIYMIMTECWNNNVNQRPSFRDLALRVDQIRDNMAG

MERTK = MERTK (UniProt Q12866); assay: as above
c-Abl (mouse) = assay: as above
FGFR3 = FGFR3 (UniProt P22607); assay: as above
Sequence of FGFR3 (P22607 whole entry, looked up, the tested form may be a part): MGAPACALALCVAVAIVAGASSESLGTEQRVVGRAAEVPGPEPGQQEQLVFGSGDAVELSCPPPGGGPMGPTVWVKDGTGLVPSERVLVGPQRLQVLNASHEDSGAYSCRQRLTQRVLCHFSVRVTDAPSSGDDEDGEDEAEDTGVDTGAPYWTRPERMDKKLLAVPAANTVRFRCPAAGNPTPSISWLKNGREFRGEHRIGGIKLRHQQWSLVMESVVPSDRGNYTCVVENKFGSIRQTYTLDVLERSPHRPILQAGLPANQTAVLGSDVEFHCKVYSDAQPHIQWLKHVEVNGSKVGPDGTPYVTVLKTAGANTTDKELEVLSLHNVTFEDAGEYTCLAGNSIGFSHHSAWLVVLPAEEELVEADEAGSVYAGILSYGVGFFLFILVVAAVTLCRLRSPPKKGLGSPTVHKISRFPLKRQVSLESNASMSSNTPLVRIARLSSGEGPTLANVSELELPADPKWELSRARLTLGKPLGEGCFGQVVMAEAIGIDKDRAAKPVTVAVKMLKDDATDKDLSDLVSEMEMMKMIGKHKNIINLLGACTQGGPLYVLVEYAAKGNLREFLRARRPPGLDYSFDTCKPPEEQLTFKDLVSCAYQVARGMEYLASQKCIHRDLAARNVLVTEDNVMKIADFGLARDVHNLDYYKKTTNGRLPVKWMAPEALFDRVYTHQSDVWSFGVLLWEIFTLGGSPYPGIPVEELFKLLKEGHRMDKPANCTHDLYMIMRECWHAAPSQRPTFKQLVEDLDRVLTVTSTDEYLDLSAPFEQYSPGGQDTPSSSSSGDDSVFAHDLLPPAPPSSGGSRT
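Throughout, for SH2 binding enrichment of the phosphorylated peptide, bacterial display: peptide library displayed on the E. coli surface as eCPX fusions, selected cells deep-sequenced, score is each peptide's frequency after selection divided by its frequency in the input.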
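Throughout, for phosphorylation enrichment, bacterial display: 11-residue human phosphosite peptides and single-mutation variants displayed on the E. coli surface, counted by deep sequencing, each peptide's frequency after selection divided by its frequency in the unselected input library; frequency after pTyr selection over input frequency; kinase dosed for 20-30% of maximal phosphorylation in three min.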

Sequence of Grb2 SH2 (P62993 whole entry, looked up): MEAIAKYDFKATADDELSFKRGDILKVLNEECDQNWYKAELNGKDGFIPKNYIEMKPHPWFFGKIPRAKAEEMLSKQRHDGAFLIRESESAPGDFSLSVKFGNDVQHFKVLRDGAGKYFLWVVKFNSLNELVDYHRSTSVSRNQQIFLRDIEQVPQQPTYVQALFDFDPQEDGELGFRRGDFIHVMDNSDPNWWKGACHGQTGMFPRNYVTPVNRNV

Sequence | SH2 binding enrichment (SHP2-C SH2) | SH2 binding enrichment (c-Src SH2) | SH2 binding enrichment (Grb2 SH2) | phosphorylation enrichment (AncSZ) | phosphorylation enrichment (Hck) | phosphorylation enrichment (EPHB1) | phosphorylation enrichment (FGFR1) | phosphorylation enrichment (Fyn) | phosphorylation enrichment (Fer (mouse)) | phosphorylation enrichment (Fes) | phosphorylation enrichment (c-Src) | phosphorylation enrichment (EPHB2) | phosphorylation enrichment (Jak2) | phosphorylation enrichment (MERTK) | phosphorylation enrichment (c-Abl (mouse)) | phosphorylation enrichment (FGFR3)
IGEVVYQWAVM [GRIN2A_Y502_R504W] | 0.61 | 0.532 | 0.845 | 2.06 | 1.1 | 0.89 | 1.03 | 1.16 | 7.77 | 1.48 | 1.47 | 0.598 | 1.17 | 0.904 | 1.57 | 1.15
IGMSSYVMLAS [GGCX_Y301_F299S] | 1.79 | 1.43 | 0.771 | 1.34 | 0.452 | 0.853 | 1.88 | 0.496 | 0.522 | 1.2 | 0.546 | 0.655 | 1.66 | 0.878 | 0.875 | 1.36
IHETTYNSIMK [ACTA1_Y281] | 1.68 | 1.93 | 0.862 | 0.475 | 1.38 | 0.332 | 0.384 | 0.746 | 0.414 | 0.711 | 1.04 | 0.338 | 0.477 | 0.3 | 0.572 | 0.436
IIWDSYTTNKM [GNB4_Y85] | 0.886 | 0.438 | 0.941 | 1.3 | 0.506 | 0.68 | 0.575 | 0.682 | 0.527 | 1.21 | 0.321 | 0.656 | 0.873 | 0.401 | 0.596 | 0.671
IKEFKYGIEEH [GJA1_Y137_K134E] | 0.489 | 0.457 | 0.856 | 0.836 | 0.42 | 0.39 | 0.508 | 0.349 | 0.402 | 0.918 | 0.365 | 0.464 | 0.581 | 0.342 | 0.612 | 0.684
ILGRYYETGSI [PAX2_Y73] | 0.649 | 1.8 | 0.817 | 0.685 | 0.49 | 0.546 | 0.848 | 0.562 | 0.459 | 0.68 | 0.455 | 0.594 | 0.643 | 0.707 | 0.535 | 0.834
ILTLKYLIEHG [ACTG1_Y69_P70L] | 1.03 | 0.88 | 1.25 | 1.05 | 0.557 | 0.689 | 0.466 | 0.526 | 0.562 | 1.32 | 0.483 | 0.618 | 1.08 | 0.463 | 0.84 | 0.839
IQTDGDRAPEA [UHMK1_Y197_Y197D] | 1.03 | 0.427 | 0.762 | 1.08 | 0.655 | 0.636 | 0.602 | 0.466 | 0.595 | 1.35 | 0.536 | 0.702 | 0.96 | 0.487 | 0.79 | 0.88
IRSGIYYKPES [L2HGDH_Y102_H98R] | 0.419 | 0.697 | 0.712 | 0.899 | 2.6 | 0.982 | 0.745 | 1.97 | 0.465 | 0.687 | 1.51 | 0.753 | 1.26 | 9.7 | 8.79 | 0.735
IRTDAYVQAMT [RPE65_Y89_R91Q] | 0.662 | 0.617 | 0.89 | 0.543 | 0.608 | 0.378 | 0.458 | 0.49 | 0.41 | 0.644 | 0.446 | 0.471 | 0.529 | 0.374 | 0.572 | 0.503
IRYPPYTDWNQ [ALDH3B2_Y365_H361R] | 0.76 | 0.767 | 0.76 | 0.781 | 0.464 | 0.428 | 0.628 | 0.468 | 0.567 | 0.826 | 0.418 | 0.494 | 0.675 | 0.429 | 0.487 | 0.612
ISDNAYQYMLT [MYH7_Y162] | 0.873 | 1.13 | 0.812 | 1.51 | 0.577 | 0.659 | 3.44 | 0.553 | 9.28 | 1.23 | 0.975 | 0.496 | 1.17 | 2.15 | 0.704 | 2.15
ISHVAYCVLGK [TRRAP_Y892_R893C] | 1.53 | 0.812 | 0.839 | 1.3 | 1.09 | 0.731 | 0.73 | 0.675 | 0.952 | 1.49 | 0.523 | 0.79 | 1.17 | 1.14 | 1.03 | 0.834
IVEFAYNDKAV [PUM3_Y259_I264V_YF] | 0.787 | 0.414 | 0.85 | 1.09 | 0.573 | 0.561 | 0.59 | 0.52 | 0.462 | 0.938 | 0.547 | 0.632 | 0.968 | 0.527 | 0.705 | 0.767
IVGLLYRLLTE [SETX_Y1978] | 1.37 | 1.89 | 2.03 | 1.29 | 0.596 | 0.665 | 0.699 | 0.436 | 0.561 | 1.35 | 0.539 | 0.672 | 1.13 | 0.71 | 0.733 | 0.937
IVKAFYVRARA [AIPL1_Y268_YF] | 1.2 | 0.601 | 0.872 | 1.11 | 0.494 | 0.5 | 0.464 | 0.433 | 0.465 | 1.07 | 0.396 | 0.588 | 0.95 | 0.424 | 0.699 | 0.688
IYRAAYFGVYD [SLC25A4_Y191] | 1.19 | 2.12 | 0.92 | 1.15 | 5.56 | 1.2 | 0.554 | 5.53 | 0.937 | 1.21 | 4.49 | 1.33 | 0.982 | 1.26 | 0.955 | 0.771

Sequence | SH2 binding enrichment (SHP2-C SH2) | SH2 binding enrichment (c-Src SH2) | SH2 binding enrichment (Grb2 SH2) | phosphorylation enrichment (AncSZ) | phosphorylation enrichment (Hck) | phosphorylation enrichment (EPHB1) | phosphorylation enrichment (FGFR1) | phosphorylation enrichment (Fyn) | phosphorylation enrichment (Fer (mouse)) | phosphorylation enrichment (Fes) | phosphorylation enrichment (c-Src) | phosphorylation enrichment (EPHB2) | phosphorylation enrichment (Jak2) | phosphorylation enrichment (MERTK) | phosphorylation enrichment (c-Abl (mouse)) | phosphorylation enrichment (FGFR3)
KASGKYYAMKI [AKT3_Y173] | 1.21 | 1.45 | 1.38 | 0.499 | 0.529 | 0.329 | 0.565 | 0.359 | 0.335 | 0.563 | 0.399 | 0.411 | 0.431 | 0.455 | 0.518 | 0.536
KASRKYYAMKI [AKT3_Y173_G171R] | 0.79 | 0.652 | 1.03 | 0.416 | 0.339 | 0.22 | 0.481 | 0.267 | 0.589 | 0.476 | 0.257 | 0.304 | 0.484 | 0.5 | 0.393 | 0.353
KDIENHIQDGK [RAD50_Y964_Y964H] | 0.471 | 0.41 | 0.682 | 0.69 | 0.463 | 0.378 | 0.41 | 0.488 | 0.414 | 0.684 | 0.446 | 0.542 | 0.621 | 0.413 | 0.392 | 0.445
KEDSAYGSQSV [NFKB2_Y868] | 0.756 | 0.558 | 0.817 | 0.978 | 0.583 | 0.502 | 0.428 | 0.535 | 0.409 | 1.07 | 0.502 | 0.521 | 1.11 | 0.454 | 0.911 | 0.584
KEELAYLKKNH [KRT14_Y248] | 0.761 | 0.482 | 0.912 | 0.597 | 0.541 | 0.413 | 0.451 | 0.395 | 0.375 | 0.742 | 0.35 | 0.422 | 0.512 | 0.333 | 0.528 | 0.515
KFVKMCDNHQL [MYO9A_Y203_Y203C_YF] | 0.795 | 0.587 | 0.8 | 0.483 | 0.42 | 0.425 | 0.429 | 0.419 | 0.358 | 0.603 | 0.441 | 0.384 | 0.513 | 0.378 | 0.519 | 0.45
KGERGYPGTLG [COL4A1_Y348_P352L] | 0.537 | 0.421 | 0.873 | 0.597 | 0.448 | 0.339 | 0.375 | 0.392 | 0.345 | 0.505 | 0.337 | 0.439 | 0.475 | 0.403 | 0.398 | 0.484
KHGGNYVPAPK [OSCP1_Y237] | 1.19 | 1.08 | 1.3 | 0.7 | 0.529 | 0.407 | 0.512 | 0.359 | 0.456 | 1.05 | 0.491 | 0.304 | 0.692 | 0.439 | 0.822 | 0.604
KIDAKYKKKIK [WDR19_Y1230_E1235K] | 0.906 | 0.657 | 0.597 | 0.553 | 0.398 | 0.38 | 0.376 | 0.305 | 0.447 | 0.809 | 0.484 | 0.319 | 0.755 | 0.368 | 0.8 | 0.834
KIIATYRLCSE [DNAH3_Y1586_V1583I] | 0.611 | 0.574 | 0.74 | 0.887 | 0.462 | 0.596 | 0.431 | 0.407 | 0.477 | 0.951 | 0.421 | 0.51 | 0.808 | 0.354 | 0.693 | 0.678
KIVYVYVKKRS [DNAI2_Y7_E2K] | 0.848 | 0.537 | 0.745 | 1.13 | 0.587 | 0.577 | 0.531 | 0.515 | 0.514 | 1.17 | 0.433 | 0.538 | 1.17 | 0.507 | 0.758 | 0.654
KKFFSYAWPFF [BRDT_Y291_H288Y_YF] | 1.25 | 0.982 | 1.34 | 1.07 | 0.497 | 0.505 | 0.515 | 0.555 | 0.488 | 0.991 | 0.497 | 0.545 | 0.92 | 1.58 | 0.611 | 0.716
KKFVPYFDLFM [IPO5_Y530_E525K_YF] | 0.831 | 0.878 | 1.58 | 1.29 | 0.571 | 0.722 | 0.79 | 0.479 | 0.53 | 1.35 | 0.526 | 0.707 | 1.14 | 0.645 | 0.773 | 0.898
KKHIPYRQHKS [CSNK1G2_Y206_E208Q] | 1.84 | 1.79 | 2.07 | 2.09 | 1.56 | 2.12 | 1.28 | 1.08 | 2.37 | 3.45 | 1.34 | 1.36 | 4.52 | 1.07 | 3.26 | 3.67
KKMEVYQSIAD [MYBPC3_Y548_L545M] | 0.576 | 1.28 | 0.775 | 0.927 | 1.47 | 0.745 | 0.719 | 0.943 | 0.508 | 1.04 | 0.91 | 0.627 | 1.04 | 0.451 | 0.764 | 0.681
KLFFIYTSGTT [SLC27A4_Y245_YF] | 0.664 | 0.478 | 0.801 | 1.16 | 0.424 | 0.633 | 0.531 | 0.435 | 0.529 | 1.19 | 0.345 | 0.646 | 1.1 | 0.398 | 0.967 | 0.813
